Results published in paper doi:10.1101/2025.02.27.640518.

Target: nCBP-2^L51F (yeast two-hybrid fusion) (cassava)
Assay: two-hybrid

CBSV Naliendele VPg fused to the B42 transcriptional activation domain (natural protein)
fold less reporter activity than with nCBP-2: 8 fold
